According to patent US20230073947A1, “A METHOD FOR PREPARING BOVINE MYOGLOBIN USING ESCHERICHIA COLI” (iNtRON Biotechnology, Inc., priority 2020, published 2023):

System: iron-deficiency-anemia-induced animals
Assay type: in vivo, Sprague-Dawley rats
Experimental: The composition containing bovine myoglobin prepared according to the present invention was administered to iron-deficiency-anemia-induced animals, whereby the effectiveness of the composition containing bovine myoglobin on alleviating anemia was evaluated. Specifically, after 2 weeks acclimation period, thirty 9-week old Sprague-Dawley rats (female) were divided into 3 groups of 10 rats per group, among which one group was fed with normal feed in an amount of 10% of body weight daily for one month (Group 1; control), and the remaining two groups were fed with iron-deficient feed in an amount of 10% of body weight daily for 6 weeks to induce iron-deficiency anemia (Group 2 and Group 3). After 6 weeks of feeding, it was confirmed that iron-deficiency anemia was induced in the individual rat belonging to Group 2 and Group 3. Then, one of the anemia-induced groups was orally administered once a day with saline alone (Group 2), and the other anemia-induced group was orally administered once a day with solution containing bovine myoglobin (0.1 mg Fe/500 μ1 solution, Group 3). The administration continued for 5 weeks. During 5 weeks of administration to Group 2 and Group 3, Group 1 was continuously fed with normal feed, and Group 2 and Group 3 were fed with iron-deficient feed. […] After 5 weeks of administration, blood was collected, and whether anemia was alleviated was evaluated.

[1] = female Sprague-Dawley rats, iron-deficient feed, oral once a day 0.1 mg Fe/500 μl solution for 5 weeks

B1: bovine myoglobin (protein)
chain: MGLSDGEWQLVLNAWGKVEADVAGHGQEVLIRLFTGHPETLEKFDKFKHLKTEAEMKASEDLKKHGNTVLTALGGILKKKGHHEAEVKHLAESHANKHKIPVKYLEFISDAIIHVLHAKHPSDFGADAQAAMSKALELFRNDMAAQYKVLGFHG
modifications: heme cofactor; Bovine myoglobin
Effectiveness at alleviating iron-deficiency anemia (conclusion from blood analysis after 5 weeks of administration): effective at alleviating iron-deficiency anemia
Blood test Hematocrit [1]: 35.8 ± 1.9%
Blood test Hemoglobin content [1]: 14.0 ± 0.7 g/dL
Weight of rats on 5 weeks after administration [1]: 318.9 ± 1.1 g
Occurrence of abnormal symptoms during the administration period (rat, in vivo, po): no abnormal symptoms
